Assay results: patent publication EP0904107B1

Key:
[1] = biological target: FcRn of the neonatal mouse intestine (mouse) (UniProt Q61559); experiment: cell-based or functional assay
[2] = biological target: recombinant soluble mouse FcRn (mouse) (UniProt Q61559); experiment: inhibition of 125I-sFcRn binding to murine IgG1-Sepharose; molar ratio of inhibitor/FcRn 1/500
[3] = biological target: recombinant soluble mouse FcRn (mouse) (UniProt Q61559); experiment: inhibition of 125I-sFcRn binding to murine IgG1-Sepharose; molar ratio of inhibitor/FcRn 1/1000
[4] = biological target: recombinant soluble mouse FcRn (mouse) (UniProt Q61559); experiment: SPR (BIAcore 2000), FcRn immobilised on CM5 chip, purified Fc-hinge fragment in flow, pH 6.0

Inhibition of transmission (%) [1] [%] | % inhibition [2] [%] | % inhibition [3] [%] | Kd [4] [nM] | koff [4] [s⁻¹] | kon [4] [M⁻¹ s⁻¹] | Substance
8.9 | – | – | – | – | – | bovine serum albumin (from UniProt P02769 25-607)
8.9 | – | – | – | – | – | HQ-310 mutant Fc-hinge fragment
5.4 | 0.2 | 4 | – | – | – | HQ-310/HN-433 mutant Fc-hinge fragment
21.5 | – | – | – | – | – | Fc-hybrid: heterodimer of WT Fc-hinge and HQ-310/HN-433 mutant
51.4 | 24.7 | 45.6 | – | – | – | murine IgG1 (complete glycosylated IgG1 molecule) (antibody)
20.2 | 2.3 | 6.5 | – | – | – | I-253 mutant Fc-hinge fragment
62.5 | – | – | – | – | – | Fc fragment produced by papain digestion of murine IgG1 (from UniProt P01868 98-324)
44.4 | – | – | – | – | – | HN-433 mutant Fc-hinge fragment
55.3 | 18.4 | 34.1 | 7.44 | 0.00461 | 620000 | wild type (WT) Fc-hinge fragment derived from murine IgG1
